Patent US6252057

Target: PP1C in 3T3-L1 adipocyte lysates (mouse (endogenous in 3T3-L1 adipocytes))
Experiment: GST-PTG added to 3T3-L1 adipocyte lysates, fractionation, PP1 activity in the glycogen pellet

fold increase in the PP1 activity sedimenting with the glycogen pellet: 8 fold
Substance: GST-PTG fusion protein
